Experimental findings from the RNAGym collection of RNA variant scans (doi:10.1093/molbev/msab373) are described below.

The labels stand for the following.
B1: Azoarcus group I ribozyme (parent)
chain: GUGCCUUGCGCCGGGAAACCACGCAAGGGAUGGUGUCAAAUUCGGCGAAACCUAAGCGCCCGCCCGGGCGUAUGGCAACGCCGAGCCAAGCUUCGGCGCCUGCGCCGAUGAAGGUGUAGAGACUAGACGGCACCCACCUAAGGCAAACGCUAUGGUGAAGGCAUAGUCCAGGGAGUGGCGAAAGUCACACAAACCGG

Variants of B1 are the subject of the data set. Kind of data set: reverse-splicing fitness (ratio to wild type); higher = more active; in vitro selection; Mg2+ level not given. In outline: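 An in vitro group I ribozyme library with randomized positions was T7-transcribed and gel-purified. In triplicate, 10 pmol RNA in EPPS pH 7.5 was reacted with 50 pmoles of a 30-nt RNA substrate for 1 h at 37 °C across several added MgCl2 levels (1–48 mM), then stopped with EDTA. Products were reverse transcribed from a substrate-complementary primer, PCR-amplified and sequenced (HiSeq 4000). Fitness is a variant's read proportion after selection over that before, normalised to wild type.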
As to C82G A111G A120G A145C C150U C169G, the reverse-splicing fitness stood at 0.0111.

With C82G A111G A120G A145G C169U U176G, the reverse-splicing fitness turned out to be 0.00529.

For C82G A111G A120G A145G C169U U176C, the reverse-splicing fitness amounted to 0.019.

Turning to C82G A111G A120G A145G C169U U176A, the reverse-splicing fitness came out at 0.0188.

For C82G A111G A120U A145C C150U U176G, the reverse-splicing fitness amounted to 0.00303.

In the case of C82G A111G A120U A145C C150U U176C, the reverse-splicing fitness came out at 0.00541.

Regarding C82G A111G A120U A145C C150U U176A, the reverse-splicing fitness is 0.00647.

As for C82G A111G A120G A145G C150A U176C, the reverse-splicing fitness is 0.0232.

As to C82G A111G A120G A145G C150A U176A, the reverse-splicing fitness was determined as 0.0107.

As for C82G A111G A120G A145G C150A U176G, the reverse-splicing fitness came out at 0.0096.

For the variant C82G A111G A120G C150U C169A U176C, the reverse-splicing fitness was 0.0197.

C82G A111G A120G C150U C169A U176A: the reverse-splicing fitness was determined as 0.0193.

Turning to C82G A111G A120G C150U C169A U176G, the reverse-splicing fitness was 0.00607.

As to C82G A111G A120G A145C C150A C169U, the reverse-splicing fitness came to 0.0075.

On to C82G A111G A120G A145C C150A C169G, for which the reverse-splicing fitness was 0.00843.

As for C82G A111G A120G A145U C150A C169G U176C, the reverse-splicing fitness is 0.0174.

C82G A111G A120G A145U C150A C169G U176A: the reverse-splicing fitness came out at 0.017.

With C82G A111G A120G A145U C150A C169G U176G, the reverse-splicing fitness amounted to 0.00454.

As for C82G A111G A120U A145C U176C, the reverse-splicing fitness was 0.0205.

Turning to C82G A111G A120U A145C U176G, the reverse-splicing fitness amounted to 0.0054.

With C82G A111G A120U A145C U176A, the reverse-splicing fitness was determined as 0.0131.

With C82G A111G A120G A145G C150G C169U, the reverse-splicing fitness was 0.00986.

As to C82G A111G A120G A145G C150G C169G, the reverse-splicing fitness turned out to be 0.00845.

Consider C82G A111G A120G A145G C150G C169A, for which the reverse-splicing fitness stood at 0.00957.

With C82G A111G A120U A145C C169G U176G, the reverse-splicing fitness worked out at 0.00165.

Regarding C82G A111G A120U A145C C169G U176A, the reverse-splicing fitness was determined as 0.00244.

Take C82G A111G A120U A145C C169G U176C: the reverse-splicing fitness was determined as 0.00181.

Consider C82G A111G A120G A145C C150U C169U U176C, for which the reverse-splicing fitness was 0.0151.

Turning to C82G A111G A120G A145C C150U C169U U176A, the reverse-splicing fitness worked out at 0.0174.

For the variant C82G A111G A120G A145C C150U C169U U176G, the reverse-splicing fitness came to 0.00538.

Turning to C82G A111G A120G A145C C150A C169G U176G, the reverse-splicing fitness was found to be 0.00603.

As to C82G A111G A120G A145C C150A C169G U176A, the reverse-splicing fitness worked out at 0.0249.

Turning to C82G A111G A120G A145C C150A C169G U176C, the reverse-splicing fitness came out at 0.0187.

As for C82G A111G A120U A145C C150A C169G U176A, the reverse-splicing fitness amounted to 0.00277.

Turning to C82G A111G A120U A145C C150A C169G U176G, the reverse-splicing fitness was 0.0019.

Consider C82G A111G A120U A145C C150A C169G U176C, for which the reverse-splicing fitness stood at 0.00215.

Consider C82G A111G A120U A145C C169G, for which the reverse-splicing fitness is 0.00347.

As for C82G A111G A120U A145C C169U, the reverse-splicing fitness is 0.00478.

Turning to C82G A111G A120U A145C C169A, the reverse-splicing fitness stood at 0.00211.

As to C82G A111G A120U A145C C169U U176G, the reverse-splicing fitness worked out at 0.00131.

On to C82G A111G A120U A145C C169U U176C, for which the reverse-splicing fitness worked out at 0.00228.

For the variant C82G A111G A120U A145C C169U U176A, the reverse-splicing fitness is 0.00244.

As for C82G A111G A120G A145G C150U C169A U176C, the reverse-splicing fitness is 0.0177.

In the case of C82G A111G A120G A145G C150U C169A U176G, the reverse-splicing fitness is 0.00616.

C82G A111G A120G A145G C150U C169A U176A: the reverse-splicing fitness was 0.0163.

Turning to C82G A111G A120G C150A U176G, the reverse-splicing fitness stood at 0.0109.

As to C82G A111G A120G C150A U176A, the reverse-splicing fitness stood at 0.0148.

C82G A111G A120G C150A U176C: the reverse-splicing fitness stood at 0.023.

Consider C82G A111G A120U A145C C150G C169A U176C, for which the reverse-splicing fitness was 0.00236.

As to C82G A111G A120U A145C C150G C169A U176G, the reverse-splicing fitness stood at 0.00183.

Regarding C82G A111G A120U A145C C150G C169A U176A, the reverse-splicing fitness turned out to be 0.00237.

C82G A111G A120G A145U C150U C169A U176A: the reverse-splicing fitness is 0.0154.

Turning to C82G A111G A120G A145U C150U C169A U176G, the reverse-splicing fitness was found to be 0.00619.

For C82G A111G A120G A145U C150U C169A U176C, the reverse-splicing fitness came to 0.0159.

On to C82G A111G A120G A145C C150G C169G U176G, for which the reverse-splicing fitness is 0.00523.

On to C82G A111G A120G A145C C150G C169G U176A, for which the reverse-splicing fitness is 0.00914.

Consider C82G A111G A120G A145C C150G C169G U176C, for which the reverse-splicing fitness is 0.00887.

For C82G A111G A120U A145C C150U C169U U176G, the reverse-splicing fitness worked out at 0.00214.

As to C82G A111G A120U A145C C150U C169U U176C, the reverse-splicing fitness turned out to be 0.00268.

Take C82G A111G A120U A145C C150U C169U U176A: the reverse-splicing fitness stood at 0.00258.

As for C82G A111G A120G A145C C169A, the reverse-splicing fitness came out at 0.0114.

On to C82G A111G A120G A145C C169G, for which the reverse-splicing fitness came out at 0.0204.

Turning to C82G A111G A120G A145C C169U, the reverse-splicing fitness is 0.0132.

Regarding C82G A111G A120G A145U C150U U176A, the reverse-splicing fitness was 0.0125.

Turning to C82G A111G A120G A145U C150U U176G, the reverse-splicing fitness was 0.00626.

C82G A111G A120G A145U C150U U176C: the reverse-splicing fitness stood at 0.0212.

Consider C82G A111G A120U A145C C150U C169A U176A, for which the reverse-splicing fitness was 0.00272.

As for C82G A111G A120U A145C C150U C169A U176C, the reverse-splicing fitness is 0.00184.

On to C82G A111G A120U A145C C150U C169A U176G, for which the reverse-splicing fitness turned out to be 0.00197.

As to C82G A111G A120G A145G C150U U176C, the reverse-splicing fitness worked out at 0.0189.

As to C82G A111G A120G A145G C150U U176A, the reverse-splicing fitness came out at 0.0115.

On to C82G A111G A120G A145G C150U U176G, for which the reverse-splicing fitness came out at 0.00823.

Regarding C82G A111G A120G C150A C169A U176C, the reverse-splicing fitness was determined as 0.0216.

For the variant C82G A111G A120G C150A C169A U176A, the reverse-splicing fitness turned out to be 0.0233.

C82G A111G A120G C150A C169A U176G: the reverse-splicing fitness is 0.00698.

Regarding C82G A111G A120G A145U C150A U176A, the reverse-splicing fitness worked out at 0.014.

Consider C82G A111G A120G A145U C150A U176C, for which the reverse-splicing fitness is 0.0191.

Turning to C82G A111G A120G A145U C150A U176G, the reverse-splicing fitness stood at 0.00563.

Consider C82G A111G A120U A145G C150A C169U, for which the reverse-splicing fitness is 0.00426.

For C82G A111G A120U A145G C150A C169G, the reverse-splicing fitness was 0.00639.

C82G A111G A120U A145G C150A C169A: the reverse-splicing fitness is 0.00593.

Turning to C82G A111G A120G A145G C150G U176C, the reverse-splicing fitness worked out at 0.0114.

For the variant C82G A111G A120G A145G C150G U176G, the reverse-splicing fitness is 0.00608.

On to C82G A111G A120G A145G C150G U176A, for which the reverse-splicing fitness turned out to be 0.00718.
